Assay results taken from article PMC3393751.

Biological target: cytochrome b558 (human (endogenous in neutrophils)) (UniProt P04839)
Sequence of UniProt P04839 (P04839 whole entry, chain 1 of 2): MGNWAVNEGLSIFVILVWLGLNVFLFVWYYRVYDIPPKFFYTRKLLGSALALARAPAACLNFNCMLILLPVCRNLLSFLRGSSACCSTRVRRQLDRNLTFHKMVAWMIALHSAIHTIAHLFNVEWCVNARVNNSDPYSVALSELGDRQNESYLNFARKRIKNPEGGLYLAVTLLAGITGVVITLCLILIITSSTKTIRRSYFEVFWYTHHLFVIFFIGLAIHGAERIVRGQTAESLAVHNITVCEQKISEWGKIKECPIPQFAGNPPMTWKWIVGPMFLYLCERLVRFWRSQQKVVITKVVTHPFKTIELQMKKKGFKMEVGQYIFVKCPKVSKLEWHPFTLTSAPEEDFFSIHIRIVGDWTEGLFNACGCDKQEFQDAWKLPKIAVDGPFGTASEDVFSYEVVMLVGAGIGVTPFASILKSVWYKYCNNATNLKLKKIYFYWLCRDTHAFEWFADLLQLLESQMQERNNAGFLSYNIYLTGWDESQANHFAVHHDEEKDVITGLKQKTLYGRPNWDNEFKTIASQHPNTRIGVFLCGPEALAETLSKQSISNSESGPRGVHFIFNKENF
Sequence of UniProt P04839 (P13498 whole entry, chain 2 of 2, further chain): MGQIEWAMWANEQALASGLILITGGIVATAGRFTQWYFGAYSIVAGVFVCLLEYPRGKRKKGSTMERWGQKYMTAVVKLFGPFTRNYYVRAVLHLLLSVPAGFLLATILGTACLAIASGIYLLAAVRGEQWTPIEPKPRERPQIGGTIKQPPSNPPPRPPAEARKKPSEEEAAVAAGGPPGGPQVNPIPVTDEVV

Substance: rS100A9-A8 chimera (full length) (from UniProt P05109 1-93)
- constitutive NADPH oxidase turnover (without arachidonic acid) of cytochrome b558 washed on the heparin matrix with the calcium loaded chimera instead of cytosol (control without washing 3.7 s^-1): 17 s⁻¹
